From a protein production outcome set (Wang et al. 2014)

Test: label from the status in PepcDB records

| Sequence | protein production |
| --- | --- |
| MPQRNDRSRSTPTTSPKNNSWFRMQAGHQSDADIYIYDEIGFWGVTAKQFISDLNALGDITHINLNINSPGGDVFEGIAIFNALKTHGASITVYVDGVAASMASVIAMVGKPVIMPENSFMMIHKPFGFTGGDAEDMRTYADLLDKVEAVLLPAYAQKTGKTTDEIAAMLADETWMSGAECLAHGFADQVTPAVKAMACIQSKRTEEFKKMPESIRNMITPPRNSAPRVQDDGPAASRTPVQAAAPVVDENSIRAQVLAEQKARVNGINDLFAMFGGRYQTLQAQCLADPECSLEQAREKLLNEMGRESTPSNKNTPXHIYAGNGNFVGDGIRQALMARAGFEKTERDNVYNGMTLREYARMSLTERGIGVSSYNPMQMVGAAFTHSTSDFGNILLDVANKAILQGWEDAPETYEQWTRKGQLSDFKIAHRVGMGGFSALRQVREGAEYKYVTTGDKQATIALATYGELFSITRQAIINDDLNMLTDVPMKLGRAAKSTIADLVYAILTSNPKISTDNVSLFDKAKHANVLESAAMDVASLDKARQLMRVQKEGERHLNIRPAFVLVPTAMESVANQVIRSSSVKGADINAGIINPVKDFATVIAEPRLDDNSQTTFYLAASKGSDTIEVAYLNGVDTPYIDQMEGFSVDGVTTKVRIDAGVAPVDHRGLVKCTA | failed |
| MPQRRPLRTMKWLIPGLWLASILFAHFRGRVRLSLSRQMLDHSVLLAPVNAFMVLTSRVPTTPYLTTSEIPELKVLDDNWETIRDEALKMAELRRIKAAERHDDIGFNSFFKYGWKRFYLKWYDARHPSAEELCPKTVAILKSLPKVKAAMFAELPPGGKLNPHRDPFSGSLRYHLGLATPNDDRCYIAVDGESYSWRDGESVVFDETYVHEAHNKSEGNRIILFCDVERPLKWRWAEAFNRWFGRVVMSAASSPNDAGDQTGAINKLTHAHWVIDQKRKQFKAWNRTVYKATKWGLIALVAIGFLAL | failed |
| MPQVETTSVFRADLLKEMESSTGTAPASTGAENLPAGSALLVVKRGPNAGARFLLDQPTTTAGRHPESDIFLDDVTVSRRHAEFRINEGEFEVVDVGSLNGTYVNREPRNAQVMQTGDEIQIGKFRLVFLAGPAELEHHHHHH | not failed |
| MPRGLILATPQLPPDGTPFSARYDDVYHSTEGGLAQAHHVFLGGNGLPGGWQGKRSFTIVETGFGQGLNFLATWAAWRDDPQRCGRLDFVSVEKHPFDRAGLALVHAQEGALASLAEALRQAWPVPVPGVHRLVFDAGRVTLTLMLGDAETLLPQLSCAADAFYLDGFSPAKNPDLWQPGVFKQLARIARGGATLATYTAAGAVRHGLREAGFEVRKAPGFGRKRDMTVAAFPTHWRTRRGPAEAPVWPERHAIVLGAGLAGCSVAERLAARGWRITLIDEHEAPAGGASAHRAAAMHPHVSIDDSVLSRLSRAGNLLARRHWEALDRAGFATGFHPTGVLQLAEHADDAAEQQRIVQALGFPADFIAWLDAARAADRVGAGVPQGGWWFAQAGWVAPPDICRAALAAAGEAVELRWRTRIESLLRHDAGWRACDAQGNVIAHAPVVVLANSLDAVRLAPLASAALKPVRGQLTDVPVAALEDGVPWPRAVVCGDGYLLPRERGAPTVRVGSSFQPGETDPDARTADHAANLRRLAGLQPAHAAALARVDPARLLGYVGVRCVSANRLPLIGAVADEAAIMAPGFRLRGPHAALPRVPGLYAALAYGSRGLTWSVLGAELLAAQIDGGPLPLESELAAALDPGRFLMRALRHGKHAA | failed |
| MPRVIPPENLGCPPFRALTFDSLGLIKVTEARGQERGIPTVVNTWGEMNASRSVLAASIDDRLRNPLLAVARKDGNVEVINPCNGDLHFSYSVFGDDGCSPEDNEISALHLFRKKIDDQTERSCTLLTCTKKGDVSLRSVKFPDAHGNSTDDASPKTWKACGSGEILVGKVDGSENFSLFGGKRVEANIWDLEQCTKIWSAKCPPKNNLGIFTPTWFTSATFLSKDDHRKFVTGTKSHQVRLYDISTQRRPVLSFDFRETAITSIAEDPDGHTIYVGNASADLASFDIRTGKLLGSFLGKCSGSIRSVVRHPQHQVIASCGLDRYLRVYDVKTRQLISAVFLKQHLTGLVFDSGFSGEETAVANTVAEAATEEKMTIMDQEDDETEKAPVKRKKSKKEKRSREIVFEGEDDEENEDEIEKAPVKTKKSKKEKRSREKVSEGEEKDELRSKKTREHKKKTKIVKHNQED | failed |
| MPRYPVRPADHAQSAEGGVTAVDRALTLLTAFRVTDQTLSLSELSERASLVPSTVLRLLASLMHFGFVLRRPDGRYALGPAAARLNRVYAASFNLQDVVLPALQELVGQTRESASFHVRQGAHRLVLYRVSSPQPLSDQSHTGDLLPLDRGTGGHVLMAFSDTPGEFYEALRLRGYMASPVSDRSPELAGISAPVFDAQGMLAGALTLTMPVHRYKDAHIPVLREAAARLSAALGA | failed |
| MPSENPIGKTMKSIDEQSLHNARRLFESGDIDRIEVGTTAGLQQIHRYLFGGLYDFAGQIREDNISKGGFRFANAMYLKEALVKIEQMPERTFEEIIAKYVEMNIAHPFLEGNGRSTRIWLDLVLKKNLKKVVNWQNVSKTLYLQAMERSPVNDLELRFLLKDNLTDDVDNREIIFKGIEQSYYYEGYEKG | not failed |
| MPSFLEISPDKLNRLIGTPGAPRIIDVRTDEDFALDPRLVPGSIRRDHAEVASWADSIDADAVVVVCHRGAKLSHGVAAYLRHAGIEAESLAGGFEAWAAAGPAVPEAKLSRRDAQGRTVWVTRARPKIDRIACPWLIRRFIDPNAVFLFVPAPEVVAVGERFGAAPFDIEDVFWSHRGELCTFDVMVEEFGLASEPLLRLAQIVRAADTARLDLAPEASGLLAASLGLSRMYSDDLEQLEAGMLLYDAFFRWCRDATEETHNWPAPKKRALEHHHHHH | not failed |
| MPSIVKGIIPPVLTPMKSDRSIDFEALERLVEHLIAGGVDGLFALGSSGEVAFLSDEDRATVIREIVRIAAGRVPVYAGVIDMQVNRMLGHIKAAEEAGVD | not failed |
| MPSLNQIFFGPPGTGKTYATVEATLQILDQPFLAKNAGSRSALKARFDELLAAGDVRFVTFHQSFSYEDFVEGLRATTDEQGQIRYEVVSGVFRSLCESVATELSGKYRAFKVGDRYGTGYKVTRATPDVVEIEKPQGKHLPIGMSLLNTLASYVDAGTFTIEELGNGRWDKKVPGSVLDPFLVNGYKNFLPSMVEHMLGKNEEGLFEPAPVQHSDAKVLIIDEINRGNVSRIFGELITLIEPSKRAGADEALEVTLPYSKERFSIPGNIHLIGTMNTADRSLAALDIALRRRFTFIEVPPNPELLDEVEVDGIAIDELLSLMNQRIAALLDRDHCLGHAYFMPLKDEPTLERLEGIFREQILPLLQEYFFEDWQRIQWVLNDQRKAPENSFLIQLSQDLIALFGDTVTVGQSNERWELNLPAFQKIESYLGVIDHNLKVGAPLEAKNVRTDGIDIRQSADGCIDVYRGGQHIKPTKPLLRELASKHGISSTSASGSELNTRSLGRKIIKFLSEQQG | failed |
| MPSLQDLYAAFRRIAPYTHRTPLLTSRLLDGLLGKRLLLKAEHLQKTGSFKARGALSKALALENPKGLLAVSSGNHAQGVAYAAQVLGVKALVVMPEDASPYKKACARAYGAEVVDRGVTAKNREEVARALQEETGYALIHPFDDPLVIAGQGTAGLELLAQAGRMGVFPGAVLAPVGGGGLLAGLATAVKALSPTTLVLGVEPEAADDAKRSLEAGRILRLEAPPRTRADGVRTLSLGERTFPILRERVDGILTVSEEALLEAERLLFTRTKQVVEPTGALPLAAVLEHGARLPQTLALLLSGGNRDFSP | not failed |
| MPSPRLQHSKPPRRLSRAQKHSSGSSNTSTANRRAHLRLCLERLKVLIPLGPDCTRHTTLGLLNKAKAHIKKLEEAERKSQHQLENLEREQRFLKWRLEQLQGPQEMERIRMDSIGSTISSDRSDSEREEIEVDVESTEFSHGEVDNISTTSISDIDDHSSLPSIGSDEGYSSASVKLSFTS | failed |
| MPSSSLDISSALMIISLCALIDILSPGVLTVTAYLLLTQPNQLSSRLFVFLFITQLGYFITGLLLYFGGNSLLKRIEQLSQFDFINWFYILLGAVLVLISFSKPKETAKKRLISFIPKNTTIKGMIILGIIVFLIEFVTALPYFYSIFLMNHQTIETTPAILIIIGYNLVMVLPSLLLLGVNIIFKERLQQFLIKIRSKLNEAPISSLLVATGVIGAVFFNIGLRGILN | failed |
| MPSSSQYRRYQDPHHPSIPTPTTLFSQPSLEILGGGVAEELPELALCCDGTVVEGRSNCRCKARAVLPGGMRVRLSKTLAGILRHHPGRYGVRLTREGWARVSEVVEGLRKAGWSWVEEWHIVGVALHDPKGRYELRNGEIRARYGHSIPVNVEPLPGEPPPILYHGTTEEALPLIMERGIMRGRRLKVHLTSSLEDAVSTGRRHGNLVAVLLVDVECLRRRGLKVERMSKTVYTVDWVPPECIAEVRRESLGRSL | not failed |
| MPSVSVNKQGIVKVNSALNMRSGPGSNYGVIGTLRNNDEVEIIKEVDGWYEIKFNGKSGYVSSQYIKVLEHHHHHH | not failed |
| MPSYGNLGRLGGRHEYGVLVAMTSSAELDRVRWAHQLRSYRIASVLRIGVVGLMVAAMVVGTSRSEWPQQIVLIGVYAVAALWALLLAYSASRRFFALRRFRSMGRLEPFAFTAVDVLILTGFQLLSTDGIYPLLIMILLPVLVGLDVSTRRAAVVLACTLVGFAVAVLGDPVMLRAIGWPETIFRFALYAFLCATALMVVRIEERHTRSVAGLSALRAELLAQTMTASEVLQRRIAEAIHDGPLQDVLAARQELIELDAVTPGDERVGRALAGLQSASERLRQATFELHPAVLEQVGLGPAVKQLAASTAQRSGIKISTDIDYPIRSGIDPIVFGVVRELLSNVVRHSGATTASVRLGITDEKCVLDVADDGVGVTGDTMARRLGEGHIGLASHRARVDAAGGVLVFLATPRGTHVCVELPLKR | failed |
| MPTERPTTTAPVSLRERRRTAAAREILDAAEQHIGEHGPAALSLRAVARGLGMTVQALYHYFPNRDALVTALITKAYGELSDVLQAAADSVRADPATPRPVAVAEAYRGWGVARPEHFQLLYGTPLRYYAAPAEGPTTQAVRRMGAIFQRELFAGFTPAQLAAAEVPALSPSYREHLEQLPMHAQGDLPPAAASLFLSAWGHVHGLVVLEVFGHTAFLGDHQAEVFRTSVRMMLEDIHRRIPAA | not failed |
| MPTETFFNLPEEKRSRLIDVLLDEFAQNDYDSVSINRITERAGIAKGSFYQYFADKKDCYLYLIQLGIEQKTAFLRQTPPASTTDMFAYLRWLLDVGIQFQFHNPRLAQIAYKALYDDVPLPAETMQVIRHGSFAYFKQLVEQGIADGSLVPDLDADTAAFVLNVVFTELGNHLIERFAVNPAELLREGGIVLLQPAMRRVIEQVIDILERGMRRR | not failed |
| MPTICEFLGYKVYMFYQDHSPPHIHVIGKGFRAALSIPEGKLLAGTLPRRVQGVAKMWVRQEATALMQNWLRAEAGEVLQQVKPPEGWLEHHHHHH | failed |
| MPTIKDYYLPKRPTLLFSLHPEPTQAIINGTKILEYRRRFFARPFQAFVYTTGDNGGIQLFLRCDQGLQLVPEQLALVGALLQHDAPTTTAAYFEGAKAGLALPITAFTTLPNIPLAQLRRQFENFVTPRSYVFLDQPDRQAQLDWLLTQPCESLTILDWRKRYAALATLLQKLEHHHHHH | not failed |
| MPTLGFRFRAYTDEQTLRALKAQLKSACKIYNTLRWADIYFYQRDGKGLTRTELRQLALDLRKQDDEYKQLYSQVVQQVADRYYEAKKRFFEGLAHFPKEKKPHKHYSLVYPQYGWKILQVREIRKGSKKKLITLKLSNLGTFKVIVHRDFPLDKVKRVVVKLTRSERIYITFVVDHEFPKLPNTGKVVAIDVGVEKLIVTSDGEYFPNLRPYEKALWKVKHLHRELSRKKFLSHNWFKAKVKLARAYEYLKNLRTDLYMKLGKWFAEHYDVVVMEGIHVKQLIGKSLRSLRRRLSDVAFSELRDLIKYQLEKYGKKLILVNPAYTSKTCAKCGYVKEDLSLSDRVFVCPNCGWIADRDYNASLNILRGSGSERPLVWSSALYQYSGMAELLEHHHHHH | not failed |
